Experimental data as given in US20020137904A1.

Biological target: rabbit anti-CS197 peptide antiserum raised against unconjugated peptide SEQUENCE ID NO 19
Test: Western blot competition; antiserum pre-incubated overnight with peptide immunogen

- concentration of peptide immunogen that inhibited antibody binding to the blot bands: 2.5 FM
Binder: LPGTKAWMETEDTLGRVLSPEPDHDSLYHPPPEED [CS 197 synthetic peptide SEQUENCE ID NO 19]
